Biological target: freshly isolated human LDL (human)
Assay: ELISA

- Kd: 15 nM
B1: rabbit SAMD1 fragment from a.a. 238 to the C-terminus end at a.a. 550 (domain or fragment)
chain: QQPQPPPEGGAARAGGPARPVSLREVVRYLGGSSGAGGRLTRGRVQGLLEEEAAARGRLERTRLGALALPRGDRPGRAPPAASARAARNKRAGEERVLEKEEEEEEEEDDEDDDDDVVSEGSEVPESDRPAGAQHHQLNGGERGPQTAKERAKEWSLCGPHPGQEEGRGPAAGSGTRQVFSMAALSKEGGSASSTTGPDSPSPVPLPPGKPALPGADGTPFGCPAGRKEKPADPVEWTVMDVVEYFTEAGFPEQATAFQEQEIDGKSLLLMQRTDVLTGLSIRLGPALKIYEHHIKVLQQGHFEDDDPEGFLG
